The values that follow come from article PMC11612273 (2024).

In one experiment the target is T1, GST-BRAKJK (tomato (Solanum lycopersicum), labeled with RED-NHS).
T1 chain: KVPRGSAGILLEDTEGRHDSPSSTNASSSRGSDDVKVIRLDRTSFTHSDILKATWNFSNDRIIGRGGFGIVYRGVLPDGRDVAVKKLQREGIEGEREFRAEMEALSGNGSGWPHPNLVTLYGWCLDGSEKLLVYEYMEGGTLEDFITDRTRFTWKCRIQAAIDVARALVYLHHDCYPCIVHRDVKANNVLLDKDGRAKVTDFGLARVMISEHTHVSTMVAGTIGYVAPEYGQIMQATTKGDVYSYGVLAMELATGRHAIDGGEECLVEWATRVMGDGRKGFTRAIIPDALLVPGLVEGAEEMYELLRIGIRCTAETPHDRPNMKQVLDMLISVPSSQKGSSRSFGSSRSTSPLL
Put plainly: MST.

In the next experiment the target is T2, GST-PSKR1JK (tomato (Solanum lycopersicum), UniProt A0A3Q7E8N4 1-1013, labeled with RED-NHS).
T2 chain: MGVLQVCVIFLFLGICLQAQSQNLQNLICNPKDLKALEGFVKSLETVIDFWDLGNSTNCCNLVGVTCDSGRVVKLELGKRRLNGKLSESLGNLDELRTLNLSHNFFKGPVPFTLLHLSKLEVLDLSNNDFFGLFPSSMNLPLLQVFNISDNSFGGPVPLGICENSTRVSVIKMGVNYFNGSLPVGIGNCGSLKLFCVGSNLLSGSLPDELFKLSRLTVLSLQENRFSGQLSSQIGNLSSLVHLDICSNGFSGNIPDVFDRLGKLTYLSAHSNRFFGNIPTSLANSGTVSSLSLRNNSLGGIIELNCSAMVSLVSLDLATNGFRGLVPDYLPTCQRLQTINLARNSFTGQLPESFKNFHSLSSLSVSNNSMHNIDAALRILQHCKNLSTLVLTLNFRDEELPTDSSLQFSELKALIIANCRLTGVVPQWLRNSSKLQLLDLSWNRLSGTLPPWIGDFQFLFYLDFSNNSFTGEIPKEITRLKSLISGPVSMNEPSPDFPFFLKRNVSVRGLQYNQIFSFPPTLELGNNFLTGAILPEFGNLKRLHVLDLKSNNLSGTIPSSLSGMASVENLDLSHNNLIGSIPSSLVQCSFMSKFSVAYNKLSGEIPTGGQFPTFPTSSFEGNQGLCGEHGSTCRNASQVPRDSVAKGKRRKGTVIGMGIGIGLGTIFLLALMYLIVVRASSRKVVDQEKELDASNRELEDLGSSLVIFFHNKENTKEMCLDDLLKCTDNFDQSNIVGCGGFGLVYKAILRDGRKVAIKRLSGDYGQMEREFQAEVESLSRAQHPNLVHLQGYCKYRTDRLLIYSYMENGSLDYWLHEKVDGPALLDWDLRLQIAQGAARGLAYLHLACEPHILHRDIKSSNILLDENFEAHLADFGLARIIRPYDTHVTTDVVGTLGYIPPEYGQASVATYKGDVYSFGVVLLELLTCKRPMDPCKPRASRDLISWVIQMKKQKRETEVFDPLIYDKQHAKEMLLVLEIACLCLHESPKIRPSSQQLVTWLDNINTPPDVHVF
Nature of the experiment: MST.

B1: PSKR1JK^Y843F (phospho-mutated) (domain or fragment)
chain: VRASSRKVVDQEKELDASNRELEDLGSSLVIFFHNKENTKEMCLDDLLKCTDNFDQSNIVGCGGFGLVYKAILRDGRKVAIKRLSGDYGQMEREFQAEVESLSRAQHPNLVHLQGYCKYRTDRLLIYSYMENGSLDYWLHEKVDGPALLDWDLRLQIAQGAARGLAFLHLACEPHILHRDIKSSNILLDENFEAHLADFGLARIIRPYDTHVTTDVVGTLGYIPPEYGQASVATYKGDVYSFGVVLLELLTCKRPMDPCKPRASRDLISWVIQMKKQKRETEVFDPLIYDKQHAKEMLLVLEIACLCLHESPKIRPSSQQLVTWLDNINTPPDVHVF
B1 registered a Kd in the experiment with GST-BRAKJK of 1.8 µM.

B2: PSKR1JK^T890A (phospho-mutated) (domain or fragment)
chain: VRASSRKVVDQEKELDASNRELEDLGSSLVIFFHNKENTKEMCLDDLLKCTDNFDQSNIVGCGGFGLVYKAILRDGRKVAIKRLSGDYGQMEREFQAEVESLSRAQHPNLVHLQGYCKYRTDRLLIYSYMENGSLDYWLHEKVDGPALLDWDLRLQIAQGAARGLAYLHLACEPHILHRDIKSSNILLDENFEAHLADFGLARIIRPYDTHVTADVVGTLGYIPPEYGQASVATYKGDVYSFGVVLLELLTCKRPMDPCKPRASRDLISWVIQMKKQKRETEVFDPLIYDKQHAKEMLLVLEIACLCLHESPKIRPSSQQLVTWLDNINTPPDVHVF
The molecule B2 had a Kd with GST-BRAKJK of 2.27 µM.

B3: PSKR1JK, wild type (ligand of the MST) (domain or fragment)
chain: VRASSRKVVDQEKELDASNRELEDLGSSLVIFFHNKENTKEMCLDDLLKCTDNFDQSNIVGCGGFGLVYKAILRDGRKVAIKRLSGDYGQMEREFQAEVESLSRAQHPNLVHLQGYCKYRTDRLLIYSYMENGSLDYWLHEKVDGPALLDWDLRLQIAQGAARGLAYLHLACEPHILHRDIKSSNILLDENFEAHLADFGLARIIRPYDTHVTTDVVGTLGYIPPEYGQASVATYKGDVYSFGVVLLELLTCKRPMDPCKPRASRDLISWVIQMKKQKRETEVFDPLIYDKQHAKEMLLVLEIACLCLHESPKIRPSSQQLVTWLDNINTPPDVHVF
Regarding B3, the dissociation constant Kd with GST-BRAKJK was determined as 0.171 µM.

B4: BRAKJK, wild type (ligand of the MST) (domain or fragment)
chain: MPGRLVCGDSIETDKQLLLNLKSFLKEQNPVDKGFKYNHWNPTDLSPCRWPGISCTTSINRVTGIDLSESNLAGKLFNNFSAMTELNSLDLSKNTFSESIPSDLGWCRNLKFLNLSHNIIVGDLNLTGLNKLEVLDLTMNRIHGLTIPEICDNLAVANISNNNFTSESGFEFSHCKKLKYLDLSYNYLTGNLSFGLDMLNMFSASHNNLSGSLPSWIFTQNCSLQGLDLSENRFFGELPTSIANCKRLVELNLWGNSFSGSIPRGIGSVHSLKELCLGSNNFSSDVPDTLSGLNKLVFLDLSRNNFGGEIQEIFGQLTQVRFLVLHGNSYTGGIVSSGIPNLVNLSRLDLSDNHFSGPLPVEISEMKGLEFLILAHNQFSGNIPSEYGDLTALQAVDLSSNRINGSIPPSFGKLRSLLWLMLANNSLSGEIPSELGNCSSLLWLNLANNQLTGPIPPQLASIGADPMLTFLLNRGKEKLTASPGDCFAMRRWIPADYPPFSFIYPLLTGKSCRILGDKLFMGDGLMPLCEPGSNVRKNQVPGYIQLSDNKLSGEIPPEISNMKKMSMMHLGANEFSGRLPSEIGQLHLVVLNVSQNKFSGEIPKQIGHLKCLLNLDLSFNNFSGPFPVSFSNLHDLSKFNISYNQYIYGAVPETGQLLTFDKSSFLGNPLLRLPSFMHNSKNNTERNTNDTHKKPKKVGALLVIVVLVLAFLVCGVMSLVVCLLIKVPRGSAGILLEDTEGRHDSPSSTNASSSRGSDDVKVIRLDRTSFTHSDILKATWNFSNDRIIGRGGFGIVYRGVLPDGRDVAVKKLQREGIEGEREFRAEMEALSGNGSGWPHPNLVTLYGWCLDGSEKLLVYEYMEGGTLEDFITDRTRFTWKCRIQAAIDVARALVYLHHDCYPCIVHRDVKANNVLLDKDGRAKVTDFGLARVMISEHTHVSTMVAGTIGYVAPEYGQIMQATTKGDVYSYGVLAMELATGRHAIDGGEECLVEWATRVMGDGRKGFTRAIIPDALLVPGLVEGAEEMYELLRIGIRCTAETPHDRPNMKQVLDMLISVPSSQKGSSRSFGSSRSTSPLL
Take B4: in the experiment with GST-PSKR1JK, binding was characterised by a dissociation constant (Kd) of 0.196 µM.

B5: BRAKJK^Y1048F (phospho-dead) (domain or fragment)
chain: KVPRGSAGILLEDTEGRHDSPSSTNASSSRGSDDVKVIRLDRTSFTHSDILKATWNFSNDRIIGRGGFGIVYRGVLPDGRDVAVKKLQREGIEGEREFRAEMEALSGNGSGWPHPNLVTLYGWCLDGSEKLLVYEYMEGGTLEDFITDRTRFTWKCRIQAAIDVARALVYLHHDCYPCIVHRDVKANNVLLDKDGRAKVTDFGLARVMISEHTHVSTMVAGTIGYVAPEYGQIMQATTKGDVYSYGVLAMELATGRHAIDGGEECLVEWATRVMGDGRKGFTRAIIPDALLVPGLVEGAEEMFELLRIGIRCTAETPHDRPNMKQVLDMLISVPSSQKGSSRSFGSSRSTSPLL
On to B5, for which, in the experiment with GST-PSKR1JK, the Kd was found to be 6.9 µM.

B6: BRAKJK^T1027A (phospho-dead; printed BRAKJK^T1024A in the results) (domain or fragment)
chain: KVPRGSAGILLEDTEGRHDSPSSTNASSSRGSDDVKVIRLDRTSFTHSDILKATWNFSNDRIIGRGGFGIVYRGVLPDGRDVAVKKLQREGIEGEREFRAEMEALSGNGSGWPHPNLVTLYGWCLDGSEKLLVYEYMEGGTLEDFITDRTRFTWKCRIQAAIDVARALVYLHHDCYPCIVHRDVKANNVLLDKDGRAKVTDFGLARVMISEHTHVSTMVAGTIGYVAPEYGQIMQATTKGDVYSYGVLAMELATGRHAIDGGEECLVEWATRVMGDGRKGFARAIIPDALLVPGLVEGAEEMYELLRIGIRCTAETPHDRPNMKQVLDMLISVPSSQKGSSRSFGSSRSTSPLL
B6: the Kd with GST-PSKR1JK was found to be 2.43 µM.

Broadly, the Kd is the concentration at which binding is half-saturated. A low value points to tighter binding.
